Experimental data published in a protein production outcome set (Wang et al. 2014).

Assay: label from the status in PepcDB records
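Note: failed if final PepcDB status was selected cloned or expressed and not failed if soluble or beyond.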

Sequence	protein production
MGVNSQKSQGEDVSPDSNIETKEGTYVGLADTHTIEVTVDNEPVSLDITEESTSDLDKFNSGDKVTITYEKNDEGQLLLKDIERANLEHHHHHH	failed
HRPLNPAMVAFSNDPLLNDLALNSSYSLLFAVNNMKSEKSAEQFYGKMDNQKMLDLVRASSTKIDFDPTLLPTMNSNPATYQGKRKNLVILLQESLGAQFVGSLGGLPLTPNLDELMQEGWQFTQMYATGTRSVRGIEAVTTGFPPSPSRAVVKLSKSQTGFFTIADLLKEQGYHTQFIYGGEANFDNMKTFFFGNGFDQIVEEKNYTNPGFVGSWGVSDEDLYNKADEEFERLSKGDKPFFSLVFTSSNHSPYEYPEGKIEQYDSEHMTRNNAVKYSDYALGTFFDKAKKSSYWDDTIFIVIADHDARVFGANLVPVKHFHIPALIIGKDIQPRKDDRIANNIDMPPTLLSLIGVDAKTPMIGRDLTKPLAREDERAMMQYDKNFGYLTRDNLVVLSPGEKVSTMEYDFESQTMKPLEVDESVIDRAKANALFASKAYQNNWYSSKRTN	not failed
KVGVLVAAHGMSTASSMAQVVGQLLDDYDVQAFDMPLDMDPSVAYDHVKRRVEKLDSGKGILLLVDMGSLTTFGERIQQETGIATRTIDMVTTPVVLEAVRKASLVDSDLDSMYQELVGFKGYSRISRNLPTDSQ	failed
MVNLMKNEKEINGKKSHFFSLSESRFMRFLGGNDLIYALIALVLLGIVIFIFDKISYVFQPFIIVFNTIAAPIIVSLVLFYLFNPIVNMMERYRIPRLLGITIIYVAIIGIITLIVNLLIPIIGSQIESFIKNTPNYLHKITRSLDKLNNNTILSGYMGQVNEWLESAQKKIPSMVSDYSDGFGSKLATFAEAVANIGIVIGTTPFVLFFMLKDGHKFKDYTTKIMPPKFRKDFHDLLEKMSVQVGSYIQGQIIVSFCIGLLLFIGYSIIGLKYALVLASIAAVTSVVPYLGPTIAISPAIVIAIITSPLMLLKLAVVWTLVQFFEGHFISPNVMGKTLKIHPLTIIFILLCAGNLMGIVGVIIGIPLYAVLKVLVSHIFMLFKRRYNRYYGNDAGEYTITEEEKGIKQ	failed
MNPPSGPRVPPSPTQEPSCMATPAPPSWWDSSQSSISSLGRLPSISPTAPGTWAAAWVPLPTVDVPDHAHYTLGTVILLVGLTGMLGNLTVIYTFCRSRSLRTPANMFIINLAVSDFLMSFTQAPVFFTSSLYKQWLFGETGCEFYAFCGALFGISSMITLTAIALDRYLVITRPLATFGVASKRRAAFVLLGVWLYALAWSLPPFFGWSAYVPEGLLTSCSWDYMSFTPAVRAYTMLLCCFVFFLPLLIIIYCYIFIFRAIRETGRALQTFGACKGNGESLWQRQRLQSECKMAKIMLLVILLFVLSWAPYSAVALVAFAGYAHVLTPYMSSVPAVIAKASAIHNPIIYAITHPKYRVAIAQHLPCLGVLLGVSRRHSRPYPSYRSTHRSTLTSHTSNLSWISIRRRQESLGSESEVGWTHMEAAAVWGAAQQANGRSLYGQGLEDLEAKAPPRPQGHEAETPGKTKGLIPSQDPRM	failed
MTDMNPDIEKDQTSDEVTVETTSVFRADFLSELDAPAQAGTESAVSGVEGLPPGSALLVVKRGPNAGSRFLLDQAITSAGRHPDSDIFLDDVTVSRRHAEFRLENNEFNVVDVGSLNGTYVNREPVDSAVLANGDEVQIGKFRLVFLTGPKQGEDDGSTGGP	failed
MRTPCSQHRRDRPSAIGSQLPDADTLDTRQPPLQEIPISSFADKTFTAPAQIRNFCIIAHIDHGKSTLADRMLQLTGVVDERSMRAQYLDRMDIERERGITIKAQNVRLPWRVDKTDYVLHLIDTPGHVDFTYEVSRALEACEGAVLLVDAAQGIEAQTLANLYLALDRDLHIIPVLNKIDLPAADPDRYAAEMAHIIGCEPAEVLRVSGKTGEGVSDLLDEVVRQVPPPQGDAEAPTRAMIFDSVYDIYRGVVTYVRVVDGKISPRERIMMMSTGATHELLEVGIVSPEPKPCEGLGVGEVGYLITGVKDVRQSKVGDTVTSLSRARGAAAEALTGYREPKPMVYSGLYPVDGSDYPNLRDALDKLQLNDAALTYEPETSVALGFGFRCGFLGLLHMEITRERLEREFGLDLISTSPNVVYRVHKDDGTEIRVTNPSDWPEGKIRTVYEPVVKTTIIAPSEFIGTIMELCQSRRGELGGMDYLSPERVELRYTMPLGEIIFDFFDALKSRTRGYASLDYEEAGEQEAALVKVDILLQGEAVDAFSAIVHKDTAYAYGNKMTTKLKELIPRQQFEVPVQAAIGSKIIARENIRAIRKDVLSKCYGGDITRKRKLLEKQKEGKKRMKTIGRVEVPQEAFVAALSTDAAGDKGKK	failed
MRSISTGRMIDDSSDSVKGSVVWVPAKSIWITTMTVVAVVGGPLTFSWSAVIVFVLSTAITICLGHSVGMHRLLIHRSFSAPLWLEHLLVYLGTLVGMAGPFGMIYAHDIRDWAQRQRDCHDLYAHRRSFFVDALWQMHCAVALDEPPRFVVEERARHDRFYRLLEATWMAQQIPLALLLFSLGGLPWLVWGIAVRISVSLTGHWLVGHFAHRNGHQGWSVDDVAVQGYNLPRFGLVTFGESFHGNHHAFPESARLGIEPGQLDLGWHFIRLLAGLGLASAIKLPHTIVPRDGLRRVEVSGDTGEDHPVGQR	failed
MNGMLLSRIKKKAMELAEDLKLVDFSFGLPYTWVLVEGIEGRALGVAMTLPEEVQRYTNSIEEPSLLEFIDKADSLNIIERTLGVAAINAVSQYYIDLREAKWIDVTELIQQDEIKRIAIIGNMPPVVRTLKEKYEVYVFERNMKLWDRDTYSDTLEYHILPEVDGIIASASCIVNGTLDMILDRAKKAKLIVITGPTGQLLPEFLKGTKVTHLASMKVTNIEKALVKLKLGSFKGFESESIKYVIEV	not failed
AKLMNRFSTTKLNPLIGSAGVSAVPMAARVSNKVGLEANAQNFLLMHAMGPNVAGVIGSAVAAGVMIKYVMG	failed
MDKNIFNILKKYFGYSSFRRGQENIIQSILDGNDTFAIMPTGGGKSICYQVPALYMKGLTIVITPLISLMKDQVDTLRENGVNASYINSTLSSKETNDILMSALSGHLKILYVAPERLEQDYFRNAIKDLTISMVAIDEAHCVSQWGHDFRVSYKRIVPFINIFDKRPIVAAFTATATDEVKKDIINLLELKEPNCFITGFDRDNLFFSIVKNENKFDFITKYLSKHKELSGIIYAATRKEVDSLHQKLISQGYSVGKYHAGMGDKERSESQDLFLYDETKLMIATNAFGMGIDKSNVRFVIHYNMPKNLESYYQEAGRAGRDGEKSECIILFSGQDIQIQKFLIKQSIPSFDRQRIELKKLNDMINYCMTTSCLRKYILNYFGENYEVENCDNCINCTGNVEIVDITLEAQKIISCIYRMGQNFGVTMIAEVLKGSKNSKVLRFNFDKLSTYGIMKDCTLKQITNLINTLIADGYLYLSDSEYATVKMSQKSIEVLKGYKKVVQKIHIVEELSLSTDNTLFEILKALRLEIARRENVPPYIIFSDSVLSEMCKYYPKDKNSMLQIKGVGEIKYNKYGEIFEEKIREYIKETNLTPEDNNKGTLKVPELLSKKIPTHIETFNLYKKGITIADMAKIRNLSIPTIQEHILKCANEGLNVNLDAYIPAEYKDLIYEKIRILGTSKLRPIKDALPDDVDYMAIKAAICKYTSKNKAI	failed
GNPEIKGRRRQIAQEIAYEDTSSQIKHASAVVSNPKDIAVAIGYMPEKYKAPWIIAMGVNLRAKRIIAEAEKYGVPIMRNVPLAHQLLDEGKELKFIPETTYEAVGEILLYITSLNAQNLENKNINQFDNL	not failed
MLEINKIHQMNCFDFLDQVENKSVQLAVIDPPYNLSKADWDSFDSHNEFLPFTYRWIDKVLDKLDKDGSLYIFNTPFNCAFICQYLVSKGMIFQNWITWDKRDGMGSAKRGFSTGQETILFFSKSKNHTFNYDEVRVPYESTDRIKHASEKGILKNGKRWFPNPNGRLCGEVWHFSSQRHKEKVNGKTVKLTHITPKPRDLIERIIRASSNPNDLVLDCFMGSGTTAIVAKKLGRNFIGCDMNAEYVNQANFVLNQLEIN	not failed
MNEKTLHLDKKSAVVGGLNLSQTKIFGTPLPLFLFLLLTVLAAHFTDTLPSGLVGGFAFMFVIGAIFGEVGKRLPIFNKYIGGAPVMIFLVAAWFVHMGWLSDREIKTVTEVMDKSKFLDLFIAVLITGSILAVNRKLLIRSLAGYIPTILAAVAGAAVFGIAIGLVFGITPDRIMMLYVLPIMGGGNGAGAIPLSEIYESVTGGSKEQYYSVAIAILTIANIVAIVAAAVINIIGEKIPSLTGNGELVRSSKLDVSEEAKNLTVTHREIAIGLMLAACVYTFSYALSKEILPGFGSIQIHTFAYMVVIIAILNAAGLCSDEIKEGAKRLSNFFSKQMLWLLMVGVGIAYTDLAEIINALTFANVIIATVIVLGAIIGAALGGWAMGFYPVEASITAGLCMANRGGSGDLEVLAASNRMSLLSYAQISSRLGGGIVLVIASVVFGMFV	failed
MHVLTLDLAPVTPKDAPLLHRVFHLSPSYFALIGMELPTLEDVVRDLQTLEVDPRRRAFLLFLGQEPVGYLDAKLGYPEAEDATLSLLLIREDHQGRGLGRQALERFAAGLDGVRRLYAVVYGHNPKAKAFFQAQGFRYVK	failed
MRREKTMDTLIRSIMIKSKRKMDAKVAQFGLTTQQARVLGFLNDNAANEIIQKDLQRIFQTRGASITSLIQGLEKKQLISRKPSIRDGREKVVTLTEEGKRIVDEFNESFPREDDKAKKILSADEYKIFIDLLSKIDDNTELEHHHHHH	not failed
MDKFSDMTMFVSIVKHQGLAAAGRELGLSPATMTARLQALEERYRVKLLNRSTRHVSLTDAGELYYKASLEILDNVNETENLILNGVKEVKGALRVAAPKDIGKQYILPILSEFCEKYPDVVPYLYLNDDVSNIAESGIDIVVRYGELADSSLISRRLSSSHRVLCASPDYLAKYGTPLTPQDLINHHCLAMVRSHEELKTWHFQGSDKKNVITVLPKRFSDDGEVVRYWALEGAGIALKSILDVQDDINNRRLVTVLNGYMANFNTSTSVSSADLNVVYMSKKYQPKRIRLFLDFLLERFETMKNGGK	not failed
MRQAKTDLAEQIFSATDRLMAREGLNQLSMLKLAKEANVAAGTIYLYFKNKDELLEQFAHRVFSMFMATLEKDFDETKPFFEQYRQMWKNIWYFLQENPTILSNLKQYESLPNFKDICKNIKNCRWDLFCHQAQKAGLLAELSEDILFLLSLKTAINLASDAKFIDFDLKPEILESVIERSWRAIQK	not failed
VGFLMFGNLLRECGVLDRLSQTAQNELVNIISILLGLTISIKMQADLFLNVQTL	failed
MALILRPPHGYSVRNRYWPGSGASNLPYLFEDFALDGDRRELRRGNSLIAVEPQVFDLLQYLIRNRERVVSKDDLVDAVWQGRIVSDATLASRVNAARSALQDNGEQQRLVRTFPRRGFRFVGTVHEEAGAEATAPVEPAKPGLGIPARPSIAVLPFVNLSGDPDQDYFADGMVEDIITGLSRIRWLFVIARNSSFTYKGRAVDMKQVGQELGVRYVLEGSVRKVGSRVRITGQLIDTEDGGHLWAERYDRELTDVFALQDEITISVVAAIEPNLRRAEIERVKRQRPDSLDAYDLFLRALPDVYTFMPQGAARGLPLLDQALAIEPSYALVHGFAAWAHQTLFIRGGMQAEHSGKASRHAHAAIEHGSGDAMALALAGFTIGLVEHDRKLADEAFSQALSLSASCAFVYAFGCVPVAYGGDATRAIDWGEQALRLNPLDAMNCVPQGMIGFGNFLAGRHEQAIAAGRRAVEMNPGFSILHGWLAAPLARLGRIEEAKAAGSRLMALDPHFTIGRWSAAVGLAPAIIDDVTEAMRLAGLPA	failed
